Results on 34 sequences are retold here after the supplement of paper PMC7877785.

± gives the uncertainty stated by the source.

This data set is described as follows: self-splicing fitness, log relative to wild type (ln ratio); higher = more splicing; Tetrahymena group I intron in knt gene, E. coli kanamycin selection, DiMSum; sequences stand for … in CUCUCU…GGAGGGAAAAGUUAUCAGGCAUGCACCUGGUAGCUAGUCUUUAAACCAAUAGAUUGCAUCGGUUUAAAAGGCAAGACCGUCAAAUUGCGGGAAAGGGGUCAACAGCCGUUCAGUACCAAGUCUCAGGGGAAACUUUGAGAUGGCCUUGCAAAGGGUAUGGUAAUAAGCUGACGGACAUGGUCCUAACCACGCAGCCAAGUCCUAAGUCAACAGAUCUUCUGUUGAUAUGGAUGCAGUUCACAGACUAAAUGUCGGUCGGGGAAGAUGUAUUCUUCUCAUAAGAUAUAGUCGGACCUCUCCUUAAUGGGAGCUAGCGGAUGAAGUGAUGCAACACUGGAGCCGCUGGGAACUAAUUUGUAUGCGAAAGUAUAUUGAUUAGUUUUGGAGUACUCGUGGUCG
Put shortly: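 Fitness was computed with DiMSum as the error-weighted combination of replicate fold changes, kanamycin versus none, each normalised to wild type. The library randomised all eight intron nucleotides of the P1ex region, with the intron placed in the knt kanamycin-resistance gene on pET-22b(+) in E. coli BL21(DE3). Six replicate transformations were grown overnight at 37°C or 30°C on LB agar with or without 25 μg/mL kanamycin, plus 100 μg/mL carbenicillin, 50 μM IPTG and 0.2% rhamnose. Pooled colonies were amplicon-sequenced on an Illumina HiSeq 2500.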

In the case of AUUGAGCAAUAUUACGAGGU, the “self-splicing fitness (ln)” value is, setting by setting: (30 °C) -3.14 ± 0.36; (37 °C) -2.02 ± 0.36. On to AUGUAGCAAUAUUACGGAUG, for which the “self-splicing fitness (ln)” value was -3.13 ± 0.31 (30 °C) and -2.82 ± 0.41 (37 °C). AUCGAGCAAUAUUACGCUUC: the “self-splicing fitness (ln)” value (37 °C) is -3.02 ± 0.44.

On to GCUGAGCAAUAUUACGACCA, for which the “self-splicing fitness (ln)” value (30 °C) was -3.18 ± 0.41 and the “self-splicing fitness (ln)” value (37 °C) was -1.57 ± 0.39.

On to CGGUAGCAAUAUUACGGGGG, for which the “self-splicing fitness (ln)” value (30 °C) is -3.21 ± 0.22 and the “self-splicing fitness (ln)” value (37 °C) was -3.01 ± 0.43. Consider ACAAAGCAAUAUUACGCUUA, for which the “self-splicing fitness (ln)” value (30 °C) was -2.37 ± 0.12 and the “self-splicing fitness (ln)” value (37 °C) is -1.71 ± 0.13. Take CUGUAGCAAUAUUACGAGCA: under “37 °C”, the “self-splicing fitness (ln)” value is -2.01 ± 0.31. On to CUUUAGCAAUAUUACGCCAA, for which the “self-splicing fitness (ln)” value (30 °C) is -2.63 ± 0.37. With CCACAGCAAUAUUACGUCCG, the “self-splicing fitness (ln)” value (30 °C) is -0.456 ± 0.053 and the “self-splicing fitness (ln)” value (37 °C) is 0.344 ± 0.068. Take UACCAGCAAUAUUACGGAAA: the “self-splicing fitness (ln)” value reads like this: (30 °C) -0.915 ± 0.073; (37 °C) -0.747 ± 0.077. For the sequence GCUCAGCAAUAUUACGAUUU, the “self-splicing fitness (ln)” value is, setting by setting: (30 °C) -0.259 ± 0.056; (37 °C) 0.00309 ± 0.075.

With CUCCAGCAAUAUUACGACAC, the “self-splicing fitness (ln)” value by setting is: (30 °C) -2.74 ± 0.33; (37 °C) -1.12 ± 0.34. With CAAGAGCAAUAUUACGGUGC, the “self-splicing fitness (ln)” value runs as follows: (30 °C) -3.03 ± 0.31; (37 °C) -2.09 ± 0.35. On to UGAAAGCAAUAUUACGAUAG, for which the “self-splicing fitness (ln)” value runs as follows: (30 °C) -1.07 ± 0.098; (37 °C) -0.612 ± 0.098. For AGAUAGCAAUAUUACGAAAA the same measures were -2.71 ± 0.24 and -2.12 ± 0.22. As to AAUAAGCAAUAUUACGAGCU, the “self-splicing fitness (ln)” value reads like this: (30 °C) -0.949 ± 0.1; (37 °C) -0.237 ± 0.1. Take GGCGAGCAAUAUUACGUCGC: the “self-splicing fitness (ln)” value (30 °C) was -2.72 ± 0.23. Turning to UUGCAGCAAUAUUACGCCAU, the “self-splicing fitness (ln)” value is, setting by setting: (30 °C) -2.8 ± 0.11; (37 °C) -2.49 ± 0.16.

For UGCCAGCAAUAUUACGAUAA, the “self-splicing fitness (ln)” value (30 °C) is -1.88 ± 0.14 and the “self-splicing fitness (ln)” value (37 °C) was -1.19 ± 0.15. With AAGCAGCAAUAUUACGCGGG, the “self-splicing fitness (ln)” value is -1.43 ± 0.078 (30 °C) and -1.27 ± 0.1 (37 °C). For AGCCAGCAAUAUUACGAUAG the same measures were -4.04 ± 0.28 and -2.35 ± 0.24. As for GCCAAGCAAUAUUACGUAGC, the “self-splicing fitness (ln)” value is -2.49 ± 0.14 (30 °C) and -1.31 ± 0.13 (37 °C).

Consider CCGAAGCAAUAUUACGCCCC, for which the “self-splicing fitness (ln)” value runs as follows: (30 °C) -1.26 ± 0.24; (37 °C) -2.89 ± 0.47. For GCCAAGCAAUAUUACGAUCC, the “self-splicing fitness (ln)” value runs as follows: (30 °C) -1.01 ± 0.14; (37 °C) 0.392 ± 0.18. For the sequence AGCUAGCAAUAUUACGACCU, the “self-splicing fitness (ln)” value by setting is: (30 °C) 0.703 ± 0.17; (37 °C) -0.166 ± 0.18. As for CACGAGCAAUAUUACGUCGU, the “self-splicing fitness (ln)” value runs as follows: (30 °C) -2.05 ± 0.14; (37 °C) -3.43 ± 0.24. AAAUAGCAAUAUUACGUCCG: the “self-splicing fitness (ln)” value runs as follows: (30 °C) -1.39 ± 0.16; (37 °C) 0.00872 ± 0.18. On to UACUAGCAAUAUUACGUCAA, for which the “self-splicing fitness (ln)” value is -1.32 ± 0.21 (30 °C) and -1.25 ± 0.17 (37 °C). For CGCUAGCAAUAUUACGGUGC the same measures were -4.65 ± 0.34 and -3.09 ± 0.25. Turning to UUCCAGCAAUAUUACGAACA, the “self-splicing fitness (ln)” value (30 °C) is -1.42 ± 0.21 and the “self-splicing fitness (ln)” value (37 °C) is -0.887 ± 0.17. Consider AAUUAGCAAUAUUACGAGGU, for which the “self-splicing fitness (ln)” value (30 °C) is -3.26 ± 0.2 and the “self-splicing fitness (ln)” value (37 °C) was -3.02 ± 0.24. Consider UCAGAGCAAUAUUACGAUUG, for which the “self-splicing fitness (ln)” value was -4 ± 0.37 (30 °C) and -2.41 ± 0.24 (37 °C). On to AACUAGCAAUAUUACGAUGA, for which the “self-splicing fitness (ln)” value is -0.741 ± 0.079 (30 °C) and -0.0286 ± 0.08 (37 °C). For AACGAGCAAUAUUACGUGCU the same measures were -3.09 ± 0.21 and -2.16 ± 0.28.
